This passage reports percent pulled down and response results from publication PMC5415106.

The target of experiment [1] is GST-Dpb11-wild-type (budding yeast) (UniProt P47027). The experiment is described as follows: pull-down; GST-Dpb11 pull-down of CDK-phosphorylated RPA with single-stranded DNA substituted for bubble-shaped DNA; data not shown.
The target in experiment [2] is GST-Dpb11-m1,2,3,5,ΔC (budding yeast) (UniProt P47027). The experiment is described as follows: pull-down; as the GST pull-down without DNA, but in the presence of 10 pmol bubble-shaped DNA; 10 pmol GST-Dpb11, 32P-labelled RPA; 25°C 1 h, glutathione Sepharose.
Sequence of GST-Dpb11-m1,2,3,5,ΔC (budding yeast) (P47027 1-615 K463E/K469E/R538E/K549E): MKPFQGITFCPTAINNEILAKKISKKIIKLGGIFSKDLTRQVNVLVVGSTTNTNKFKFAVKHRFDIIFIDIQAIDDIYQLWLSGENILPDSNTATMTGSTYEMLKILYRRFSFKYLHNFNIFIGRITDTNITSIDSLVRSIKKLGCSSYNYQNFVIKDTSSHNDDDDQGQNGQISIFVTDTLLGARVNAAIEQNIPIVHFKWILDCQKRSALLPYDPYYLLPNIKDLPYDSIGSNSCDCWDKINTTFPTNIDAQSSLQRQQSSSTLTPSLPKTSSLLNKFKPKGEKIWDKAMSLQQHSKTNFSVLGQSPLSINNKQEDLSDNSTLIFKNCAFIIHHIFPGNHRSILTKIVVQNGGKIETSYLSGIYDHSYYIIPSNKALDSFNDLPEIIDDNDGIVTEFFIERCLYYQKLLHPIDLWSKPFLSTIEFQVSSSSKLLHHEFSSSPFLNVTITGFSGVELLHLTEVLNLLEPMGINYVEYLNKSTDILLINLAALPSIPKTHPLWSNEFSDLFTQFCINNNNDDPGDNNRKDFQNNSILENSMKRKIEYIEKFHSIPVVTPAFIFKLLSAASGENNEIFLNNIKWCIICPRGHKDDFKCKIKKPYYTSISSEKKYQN
The target of experiment [3] is GST-Dpb11-wild-type (budding yeast) (UniProt P47027). The experiment is described as above.
Experiment [4] concerns the target GST-Dpb11-m1,2,3,5,ΔC (budding yeast) (UniProt P47027). The experiment is described as follows: pull-down; 10 pmol GST-tagged Dpb11 with 32P-labelled protein, no DNA; GST-binding buffer (40 mM Tris-HCl pH 7.5, 100 mM NaCl, 0.1 mM EDTA, 10% glycerol, 0.1% Triton X-100, 1 mM DTT, 0.1 mg/ml BSA), 25°C 1 h; glutathione Sepharose, two washes; SDS-PAGE and phosphorimaging.

Experiment [5] concerns the target GST-Dpb11-wild-type (budding yeast) (UniProt P47027). The experiment is described as above.
In experiment [6] the target is Mcm2-7 complex with a PKA tag at the N-terminus of Mcm2 [modified: 32P-phosphate on the PKA tag; 32P-phosphate on the PKA tag] [budding yeast]. The experiment is described as follows: GST pull-down, phosphorimaging. As to conditions: 10 pmoles GST-Dpb11, read off a plot.

Sequence of GST-Dpb11-wild-type (budding yeast) (P47027 whole entry): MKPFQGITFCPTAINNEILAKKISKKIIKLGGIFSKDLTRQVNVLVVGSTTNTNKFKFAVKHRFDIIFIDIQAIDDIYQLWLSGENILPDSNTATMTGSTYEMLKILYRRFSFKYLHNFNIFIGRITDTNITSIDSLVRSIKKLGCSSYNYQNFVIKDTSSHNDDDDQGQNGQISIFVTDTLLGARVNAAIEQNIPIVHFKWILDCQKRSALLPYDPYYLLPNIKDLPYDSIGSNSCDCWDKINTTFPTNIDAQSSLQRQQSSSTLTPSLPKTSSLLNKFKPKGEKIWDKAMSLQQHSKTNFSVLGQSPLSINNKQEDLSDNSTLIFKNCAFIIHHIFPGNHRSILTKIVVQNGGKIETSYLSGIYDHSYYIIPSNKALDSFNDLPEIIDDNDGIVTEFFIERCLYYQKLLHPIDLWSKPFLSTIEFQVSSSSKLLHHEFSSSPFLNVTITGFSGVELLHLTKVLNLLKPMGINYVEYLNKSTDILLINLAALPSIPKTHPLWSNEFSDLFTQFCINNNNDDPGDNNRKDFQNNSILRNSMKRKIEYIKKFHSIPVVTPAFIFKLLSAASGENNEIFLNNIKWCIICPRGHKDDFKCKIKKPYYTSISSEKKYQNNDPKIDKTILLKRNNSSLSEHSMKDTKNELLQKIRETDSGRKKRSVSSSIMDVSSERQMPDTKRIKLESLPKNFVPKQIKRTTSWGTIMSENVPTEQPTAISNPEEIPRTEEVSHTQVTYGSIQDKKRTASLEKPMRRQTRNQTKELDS

On to “CDK-phosphorylated RPA (PKA-tagged on Rfa1) (from UniProt P22336 1-621) (complex)”, for which the percent pulled down in experiment [1] was found to be 50%; in experiment [2] it was 15%; in experiment [3], 50%; in experiment [4], 15%; in experiment [5], 15%.

As to “GST-Dpb11-wild-type mutant K463E; K469E; R538E; K549E [budding yeast] / Mcm2-7 complex with a PKA tag at the N-terminus of Mcm2 [modified: 32P-phosphate on the PKA tag; 32P-phosphate on the PKA tag] [budding yeast] chain 1 K463E, chain 1 K469E, chain 1 R538E, chain 1 K549E”, the response in experiment [6] (1 pmole Mcm2-7 input, parent: 0.26) amounted to 0.25 pmol; in experiment [6] (3 pmoles Mcm2-7 input, parent: 0.55), 0.55 pmol; in experiment [6] (10 pmoles Mcm2-7 input, parent: 1.3), 1.3 pmol.

Regarding “PKA-RPA (not phosphorylated by CDK) (from UniProt P22336 1-621) (complex)”, the percent pulled down in experiment [3] and in experiment [5] was 15% in each case.
